Source: US20120213771A1 (CELLDEX THERAPEUTICS, published 2012)
Numbering of substitutions follows the chain as printed. Several values for one entry are separate records, joined by “and”; a condition that tells them apart may be missing. Equal values may be shown once.

T1: recombinant purified human CD27 (human, UniProt P26842 20-191)
T1 construct: also called soluble or recombinant human CD27
T1 sequence: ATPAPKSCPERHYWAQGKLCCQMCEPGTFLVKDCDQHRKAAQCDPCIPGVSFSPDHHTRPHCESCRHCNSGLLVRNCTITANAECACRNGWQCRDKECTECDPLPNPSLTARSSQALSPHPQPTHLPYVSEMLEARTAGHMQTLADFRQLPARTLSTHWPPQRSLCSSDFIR

B1: 1G5-1B9 (antibody, V domains shown)
VH: QVQLVESGGGVVQPGRSLRLSCAASGFSFSSYGMHWVRQAPGKGLEWVALLWYDGSHKDFADSVKGRFTISRDNSKNTLDLQMNSLRAEDTAVYYCAREGLAVPGHWYFDLWGRGTLVTVSS
VL: AIQLTQSPSSLSASVGDRVTITCRASQGISSALAWYQQKPGKAPKLLIYDASSLESGVPSRFSGSGSGTDFTLTISSLQPEDFATYYCQQFNTYPRTFGQGTKVEIK
notes: Human IgG from hybridoma
B2: 1H8-B4 (antibody, V domains shown)
VH: QVQLVESGGGVVQPGRSLRLSCAASGFTFNIYDMHWVRQAPGKGLEWVAVIWYDGSNQYYADSVKGRFTISRDNSKNTLYLQMNILRAEDTAVYYCARGTHWGYFDYWGQGTLVTVSS
VL: B1 VL with A1D, L4M, A32W, G41E, L46S, D50A, S53N, E55Q, F91Y, T93S
notes: Human IgG from hybridoma
B3: 1F5-1H5 (antibody, V domains shown)
VH: QVQLVESGGGVVQPGRSLRLSCAASGFTFSSYDMHWVRQAPGKGLEWVAVIWYDGSNKYYADSVKGRFTISRDNSKNTLYLQMNSLRAEDTAVYYCARGSGNWGFFDYWGQGTLVTVSS
VL: B1 VL with A1D, L4M, S31R, A32W, G41E, L46S, D50A, E55Q, F91Y
notes: Fully human IgG from HuMAb mouse hybridoma, protein A purified; Human IgG1 is used as its isotype control; also called mAb 1F5; anti-CD27 mAb 1F5
B4: 3H12-1E12 (antibody, V domains shown)
VH: B3 VH with A24T, R87G, A88D
VL: B1 VL with A1D, L4M, S31R, A32W, G41E, L46S, D50A, E55Q, F91Y
notes: Human IgG from hybridoma; Two subclones (3H12-1C8 and 3H12-1E12) are both called 3H12; also called 3H12-1C8
B5: 3H8-1B11 (antibody, V domains shown)
VH: EVQLVESGGGLVQPGGSLRLSCAASGFTFSSYWMAWVRQAPGKGLEWLGNIKQDGSEKYYVDSVKGRFTISRDNAKNSLYLQMNSLRAEDTAVYYCVRELGMDWYFDLWGRGTLVTVSS
VL: EIVLTQSPATLSLSPGERATLSCRASQSVDSYLAWYQQKPGQAPRLLIYDASNRATGIPARFSGSGSGTDFTLTISNLEPEDFAVYYCQQRSNWPPTFGQGTKVEIK
notes: Human IgG from hybridoma
B6: 2G9-1D11 (antibody, V domains shown)
VH: QVQLVESGGGVVQPGRSLRLSCAASGFTLSSHDIHWVRQAPGKGLEWVAVIWNDGSNKYYADSVKGRFTISRDNSTNSLFLQMNSLRAEDTAVYYCVRGTADLEHWDQGTLVTVSS
VL: DIQMTQSPSSLSASVGDRVTITCRASQGISSWLAWYQQKPEKAPKSLIYAASSLQSGVPSRFSGSGSGTDFTLTISSLQPEDFATYYCQQYNSYPLTFGGGTKVEIK
notes: Human IgG from hybridoma
B7: 2C2-1A10 (antibody, V domains shown)
VH: B6 VH with L29F, H32Y, R98G
VL: B6 VL
notes: Human IgG from hybridoma
B8: 3A10-G10 (antibody, V domains shown)
VH: QVQLVESGGGVVQPGRSLRLSCAASGFTFSHYGMHWVRQAPGKGPEWVAIIWYDGSNKYYADSVKGRFTISRDNSKNTLDLQMNSLRAEDTAVYYCARDGWTTMVRGLNVFDIWGQGTMVTVSS
VL: B6 VL with G28D, L96P, G100Q, K103R, V104L
notes: Human IgG from hybridoma; also called 3A10-1G10

Target: T2, purified recombinant monkey (macaque) CD27 (macaque)
T2 construct: The paragraph speaks of cynomolgus macaques as the model; the protein itself is only called macaque / monkey CD27; Captured with anti-Flag antibody in one format; also called monkey CD27
Experiment: ELISA on plate-bound monkey CD27, half-max binding

EC50 [µg/mL]	Binder
0.065	B1
0.105	B2
0.12	B3
0.123	B4
0.065	B5
0.069	B6
0.034	B7

Target: T1, recombinant purified human CD27
Experiment: ELISA on CD27-coated plates, half-max binding (C value of 4-parameter fit)
Protocol: Microtiter plates were coated with soluble or recombinant human or macaque CD27 in PBS, and then blocked with 5% bovine serum albumin in PBS. Protein A purified human mAbs and an isotype control were added at […] concentrations and incubated at 37° C. The plates were washed with PBS/Tween and then incubated with a goat-anti-human IgG Fc-specific polyclonal reagent conjugated to alkaline phosphatase at 37° C. After washing, the plates were developed with pNPP substrate (1 mg/ml), and analyzed at OD 405-650 using a microtiter plate reader.

EC50	Binder
0.49 nM and 0.074 µg/mL	B1
0.43 nM and 0.064 µg/mL	B2
0.39 nM and 0.059 µg/mL	B3
0.57 nM and 0.085 µg/mL	B4
0.46 nM and 0.069 µg/mL	B5
0.43 nM and 0.064 µg/mL	B6
0.3 nM and 0.045 µg/mL	B7
0.63 nM and 0.094 µg/mL	B8
